# T1: Rvs167 SH3 (RV167_YEAST), P39743
# T1 chain: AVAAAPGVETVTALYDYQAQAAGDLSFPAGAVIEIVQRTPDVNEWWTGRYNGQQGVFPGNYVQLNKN
# T2: Yhr016c SH3 (YSC84_YEAST), P32793
# T2 chain: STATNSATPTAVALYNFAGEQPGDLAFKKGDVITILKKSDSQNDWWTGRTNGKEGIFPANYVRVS
# T3: Boi2 SH3 (BOI2_YEAST), P39969
# T3 chain: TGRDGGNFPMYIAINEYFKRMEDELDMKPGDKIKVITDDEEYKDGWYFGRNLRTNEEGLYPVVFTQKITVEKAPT
# T4: Boi1 SH3 (BOI1_YEAST), P38041
# T4 chain: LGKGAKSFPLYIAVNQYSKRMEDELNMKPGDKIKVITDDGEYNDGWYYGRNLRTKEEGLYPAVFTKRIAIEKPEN
# T5: Yfr024 SH3 (LSB3_YEAST), P43603
# T5 chain: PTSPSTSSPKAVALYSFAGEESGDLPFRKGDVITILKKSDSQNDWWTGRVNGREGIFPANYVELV
# B1: YOR059C 252-265 (peptide)
# chain: SHAPTKPTKTYKKW
# B2: YDR206W 310-323 (peptide)
# chain: SKGPRTPAKEILEF
# B3: YJR083C 215-228 (peptide)
# chain: SGPPLLPPRNTMKN
# B4: YNL138W 352-365 (peptide)
# chain: SGPPPRPKKPSTLK
# B5: YHL027W 505-518 (peptide)
# chain: SKIPMLPSRRTMAG
# B6: YPR071W 44-57 (peptide)
# chain: SFVPFPPFKLLTFD
# B7: YDR332W 665-678 (peptide)
# chain: SLAPVYPLKSLLRI
# B8: YDL203C 329-342 (peptide)
# chain: SHQPYLPIKNKNIV
# B9: YGR040W 221-234 (peptide)
# chain: SGKPLFPGRDYHHQ
# B10: YJL056C 343-356 (peptide)
# chain: SKPPQLPPKSSSLR
# B11: YDR419W 203-216 (peptide)
# chain: SHLPLIPEKIKSLK
# B12: YML061C 386-399 (peptide)
# chain: SKDPNRPTKFAFES
# B13: YGR264C 141-154 (peptide)
# chain: SKFPELPSKVHNAV
# B14: YOR254C 500-513 (peptide)
# chain: SFAPFFPTKRRGSW
# B15: YDR464W 666-679 (peptide)
# chain: SGKPKKPYRRWTPE
# B16: YOR057W 166-179 (peptide)
# chain: SHSPISPLKIETAP
# B17: YML013W 181-194 (peptide)
# chain: SKVPKAPTRETHIP
# Target: T1, Rvs167 SH3 (RV167_YEAST), P39743
# Experiment: SPOT array
row,"normalised SPOT signal, Boehringer light units (BLU); mean over the file's lines of this peptide",Binder
1,10,B1
2,53.9,B2
3,25500,B3
4,29,B4
5,58400,B5
6,68.3,B6
7,45.5,B7
8,50.4,B8
9,105,B9
10,140,B10
11,50.3,B11
12,37.7,B12
13,20.5,B13
14,232,B14
15,196,B15
16,20.2,B16
17,47.3,B17

# Target: T2, Yhr016c SH3 (YSC84_YEAST), P32793
# Experiment: SPOT array
row,"normalised SPOT signal, Boehringer light units (BLU); mean over the file's lines of this peptide",Binder
1,104,B1
2,0,B2
3,30000,B3
4,305,B4
5,103000,B5
6,290,B6
7,173,B7
8,99.3,B8
9,896,B9
10,2910,B10
11,136,B11
12,236,B12
13,132,B13
14,998,B14
15,407,B15
16,45.7,B16
17,218,B17

# Target: T3, Boi2 SH3 (BOI2_YEAST), P39969
# Experiment: SPOT array
row,"normalised SPOT signal, Boehringer light units (BLU); mean over the file's lines of this peptide",Binder
1,21.9,B1
2,44.4,B2
3,65.5,B3
4,84.8,B4
5,4640,B5
6,28.7,B6
7,54.3,B7
8,85,B8
9,54.4,B9
10,6.6,B10
11,56.3,B11
12,37.9,B12
13,32.6,B13
14,350,B14
15,28,B15
16,47,B16
17,36.6,B17

# Target: T4, Boi1 SH3 (BOI1_YEAST), P38041
# Experiment: SPOT array
row,"normalised SPOT signal, Boehringer light units (BLU); mean over the file's lines of this peptide",Binder
1,111,B1
2,176,B2
3,577,B3
4,138,B4
5,2650,B5
6,75.4,B6
7,7610,B7
8,80.9,B8
9,33.8,B9
10,74.2,B10
11,123,B11
12,47.1,B12
13,105,B13
14,342,B14
15,109,B15
16,196,B16
17,23.4,B17

# Target: T5, Yfr024 SH3 (LSB3_YEAST), P43603
# Experiment: SPOT array
row,"normalised SPOT signal, Boehringer light units (BLU); mean over the file's lines of this peptide",Binder
1,3670,B1
2,380,B2
3,32900,B3
4,2620,B4
5,45200,B5
6,322,B6
7,782,B7
8,1340,B8
9,2060,B9
10,45000,B10
11,774,B11
12,162,B12
13,1170,B13
14,15400,B14
15,4000,B15
16,38.9,B16
17,1300,B17
